Test results taken from patent publication US20090286739A1 (FIBREX MEDICAL RESEARCH AND DEVELOPMENT, published 2009).
Non-standard residues stand in square brackets, D forms with d. Primed or numbered codes have the meaning given here. No end group written: not given here. Haic′ = not defined here; Acdn = not defined here

B1: Gly-His-Arg-Pro-Leu-Asp-Lys-Acdn-Ile-Ser-Gly-Gly-Gly-Tyr-Arg (peptide)
peptide: GHRPLDK[Acdn]ISGGGYR-NH2
modifications: reading uncertain; also: printed as Gly-His-Arg-Pro-Leu-Asp-Lys-Acdn-Ile-Ser-Gly-Gly-Gly-Tyr-Arg-NH2
B2: Gly-His-Arg-Pro-Leu-Asp-Lys-(1S,2R)Achc-Ile-Ser-Gly-Gly-Gly-Tyr-Arg (peptide)
peptide: GHRPLDK[(1S,2R)Achc]ISGGGYR
modifications: not fully specified; printed as Gly-His-Arg-Pro-Leu-Asp-Lys-(1S,2R)Achc-Ile-Ser-Gly-Gly-Gly-Tyr-Arg

Molecular target: T1, vascular endothelial (VE) cadherin (human, UniProt P33151 48-784)
T1 sequence (looked up): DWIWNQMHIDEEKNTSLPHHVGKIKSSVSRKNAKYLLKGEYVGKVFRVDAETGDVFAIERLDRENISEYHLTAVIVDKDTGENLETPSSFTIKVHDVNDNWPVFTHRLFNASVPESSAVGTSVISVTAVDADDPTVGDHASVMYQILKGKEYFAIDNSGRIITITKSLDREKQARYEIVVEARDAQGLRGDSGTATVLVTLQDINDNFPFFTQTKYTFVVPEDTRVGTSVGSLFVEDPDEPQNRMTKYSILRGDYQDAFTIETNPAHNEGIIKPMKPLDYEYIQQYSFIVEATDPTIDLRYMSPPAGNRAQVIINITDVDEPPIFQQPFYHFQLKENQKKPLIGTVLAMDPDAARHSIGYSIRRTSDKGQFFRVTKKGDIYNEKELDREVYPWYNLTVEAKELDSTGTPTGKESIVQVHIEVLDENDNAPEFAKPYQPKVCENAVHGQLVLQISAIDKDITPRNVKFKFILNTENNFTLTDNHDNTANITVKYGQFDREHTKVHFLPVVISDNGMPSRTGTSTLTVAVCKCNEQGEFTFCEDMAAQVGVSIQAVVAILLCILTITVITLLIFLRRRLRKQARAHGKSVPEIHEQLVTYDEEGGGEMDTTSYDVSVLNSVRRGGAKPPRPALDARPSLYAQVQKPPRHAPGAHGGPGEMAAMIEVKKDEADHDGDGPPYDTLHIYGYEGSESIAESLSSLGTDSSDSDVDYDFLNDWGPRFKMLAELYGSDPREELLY
Test: cell-based or functional assay

Binder | Relative RhoA stimulation compared to unstimulated control
B1 | 1.3 fold of unstimulated control
B2 | 1.5 fold of unstimulated control
GHRPLDK[cis‑4‑Acha]ISGGGYR [Gly-His-Arg-Pro-Leu-Asp-Lys-(cis-4-Acha)-Ile-Ser-Gly-Gly-Gly-Tyr-Arg] | 1 fold of unstimulated control
GHRPLDK[Haic′]ISGGGYR [Gly-His-Arg-Pro-Leu-Asp-Lys-Haic-Ile-Ser-Gly-Gly-Gly-Tyr-Arg] | 1.3 fold of unstimulated control
